Laboratory results reported in patent US20230212533.

Columns and labels:
[1] = target: T1, CycN cytochrome c protein (Pseudomonas putida S16)
T1 chain: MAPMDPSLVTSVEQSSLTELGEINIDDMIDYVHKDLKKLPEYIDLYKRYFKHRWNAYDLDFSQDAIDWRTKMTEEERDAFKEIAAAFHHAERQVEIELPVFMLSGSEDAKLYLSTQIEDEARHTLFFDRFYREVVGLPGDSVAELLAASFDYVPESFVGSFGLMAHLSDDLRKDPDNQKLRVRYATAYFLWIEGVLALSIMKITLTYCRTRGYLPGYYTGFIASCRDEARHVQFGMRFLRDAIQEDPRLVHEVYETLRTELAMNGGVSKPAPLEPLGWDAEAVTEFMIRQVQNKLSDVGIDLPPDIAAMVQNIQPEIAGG

[2] = target: Bovine mitochondrial cytochrome c, P62894
Bovine mitochondrial cytochrome c, P62894, sequence (P62894 2-105): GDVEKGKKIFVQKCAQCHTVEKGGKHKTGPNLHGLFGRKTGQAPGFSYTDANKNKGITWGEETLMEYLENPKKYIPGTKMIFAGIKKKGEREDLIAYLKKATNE

B1: NicA2 nicotine oxidoreductase (wild-type, Pseudomonas putida S16) (protein)
chain: TQKTNRASTVKGGFDYDVVVVGGGFAGATAARECGLQGYRTLLLEARSRLGGRTFTSRFAGQEIEFGGAWVHWLQPHVWAEMQRYGLGVVEDPLTNLDKTLIMYNDGSVESISPDEFGKNIRIAFEKLCHDAWEVFPRPHEPMFTERARELDKSSVLDRIKTLGLSRLQQAQINSYMALYAGETTDKFGLPGVLKLFACGGWNYDAFMDTETHYRIQGGTIGLINAMLTDSGAEVRMSVPVTAVEQVNGGVKIKTDDDEIITAGVVVMTVPLNTYKHIGFTPALSKGKQRFIKEGQLSKGAKLYVHVKQNLGRVFAFADEQQPLNWVQTHDYSDELGTILSITIARKETIDVNDRDAVTREVQKMFPGVEVLGTAAYDWTADPFSLGAWAAYGVGQLSRLKDLQAAEGRILFAGAETSNGWHANIDGAVESGLRAGREVKQLLS
For B1, the “kobs for the second phase, stopped-flow at 542 nm” value [1] was “invariant at ˜5.5 s^-1 independent of the CycNox concentration used”, the “reduction of CycN heme, UV-VIS absorbance (Soret band, 410 and 550 nm); 3.75 µM CycN, 30 nM NicA2, 100 µM nicotine” value [1] was “a characteristic increase and shift of Soret banding pattern was observed, which indicated that CycN had become reduced” and the “time to complete electron transfer, anaerobic stopped-flow; 15 µM NicA2-Flred mixed with excess CycNox” value [1] was “Electron transfer between NicA2-Flred and CycNox appeared to be very rapid, being complete in under one second”. For the same protein, the “reduction of bovine cytochrome c, UV-VIS absorbance 250-600 nm for 15 minutes; 6.84 µM bovine cytochrome c with NicA2 and nicotine” value [2] was “The bovine mitochondrial cytochrome c was not efficiently reduced by this system”.
